Source: patent US20190194299A1 (Dana-Farber, published 2019)
Positions count from the first letter of the chain named.

T1: Spike (S) protein of live MERS-CoV EMC/2012 (wild type virus) (MERS-CoV, UniProt K9N5Q8 18-1353)
T1 sequence: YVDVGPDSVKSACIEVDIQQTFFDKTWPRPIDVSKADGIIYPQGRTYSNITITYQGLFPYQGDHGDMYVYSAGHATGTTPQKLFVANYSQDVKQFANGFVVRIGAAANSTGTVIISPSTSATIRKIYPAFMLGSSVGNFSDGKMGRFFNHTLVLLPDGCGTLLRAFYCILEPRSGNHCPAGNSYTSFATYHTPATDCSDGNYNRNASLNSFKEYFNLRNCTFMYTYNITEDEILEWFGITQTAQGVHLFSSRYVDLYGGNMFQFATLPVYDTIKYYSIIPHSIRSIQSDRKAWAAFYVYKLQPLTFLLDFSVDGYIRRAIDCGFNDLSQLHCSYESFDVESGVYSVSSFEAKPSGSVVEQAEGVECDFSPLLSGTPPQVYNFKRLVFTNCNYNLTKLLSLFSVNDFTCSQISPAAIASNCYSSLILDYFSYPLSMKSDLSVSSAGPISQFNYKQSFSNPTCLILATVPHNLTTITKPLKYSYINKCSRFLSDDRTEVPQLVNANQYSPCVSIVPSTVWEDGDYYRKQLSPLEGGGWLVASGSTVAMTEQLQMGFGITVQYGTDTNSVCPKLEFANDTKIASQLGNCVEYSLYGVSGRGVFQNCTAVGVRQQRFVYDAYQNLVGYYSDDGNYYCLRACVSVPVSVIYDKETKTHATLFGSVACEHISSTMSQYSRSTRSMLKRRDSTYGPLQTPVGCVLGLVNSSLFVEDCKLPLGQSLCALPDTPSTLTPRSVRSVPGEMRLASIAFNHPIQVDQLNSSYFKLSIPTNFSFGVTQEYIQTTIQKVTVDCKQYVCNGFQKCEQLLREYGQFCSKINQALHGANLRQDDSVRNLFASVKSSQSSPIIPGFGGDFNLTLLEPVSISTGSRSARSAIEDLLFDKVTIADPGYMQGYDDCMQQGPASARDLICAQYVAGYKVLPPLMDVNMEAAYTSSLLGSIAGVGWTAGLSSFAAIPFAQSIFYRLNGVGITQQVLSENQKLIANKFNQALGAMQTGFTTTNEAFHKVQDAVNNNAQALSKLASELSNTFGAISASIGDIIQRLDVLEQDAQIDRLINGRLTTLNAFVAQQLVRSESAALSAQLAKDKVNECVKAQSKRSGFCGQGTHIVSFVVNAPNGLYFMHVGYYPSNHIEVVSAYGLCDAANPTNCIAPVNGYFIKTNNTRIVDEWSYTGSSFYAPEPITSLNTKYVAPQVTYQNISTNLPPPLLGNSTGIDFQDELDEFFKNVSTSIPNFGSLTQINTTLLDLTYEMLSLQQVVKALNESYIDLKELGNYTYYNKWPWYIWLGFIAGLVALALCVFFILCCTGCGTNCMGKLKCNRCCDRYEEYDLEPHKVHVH

B1: 3B12 scFvFc (scFv, V domains shown)
VH: QVQLVQSGAEVKKPGSSVKVSCKASGGTFSSYAISWVRQAPGQGLEWMGGIIPIFGTANYAQKFQGRVTITADKSTSTAYMELSSLRSEDTAVYYCARASYCSTTSCASGAFDIWGQGTLVTVSS
VL: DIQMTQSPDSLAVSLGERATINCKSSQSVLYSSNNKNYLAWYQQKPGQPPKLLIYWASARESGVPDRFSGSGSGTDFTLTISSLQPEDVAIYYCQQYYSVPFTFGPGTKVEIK
B2: 3B11 IgG1 (antibody, V domains shown)
VH: B1 VH with A99V, S100G, T104S, A108H, S109I, L120T
VL: ETTLTQSPGTLSLSPGERATLSCRASQSVSSSIAWYQQKPGQAPRLLMFDSSTRATGIPDRFSGSGSGTDFTLNISSLEPEDFAVYYCQQYSSSPYTFGQGTKLEIK
B3: 3A1 scFvFc (scFv, V domains shown)
VH: QVQLVQSGAEVKKPGSSVKVSCKASGGTFSSYAVSWVRQAPGQGLEWVGRIIPIFGKANYAQKFQGRVTITADKSTSTAYMELSSLRPEDTAVYYCARDQGISANFKDAFDIWGQGTTVTVSS
VL: ETTLTQSPATLSVSPGERATLSCRASESVGSNLAWYQQKPGQAPSLLIYGASTRATGIPDRFSGSGSGTDFTLTISSLQSEDFAAYYCQQYNNWPLTFGPGTKVEIK
B4: 3A1 IgG1 (antibody, V domains shown)
VH: B3 VH
VL: B3 VL
B5: 1F8 scFvFc (scFv, V domains shown)
VH: EVQLVQSGAEVKEPGSSVKVSCKASGGTFGSYAINWVRQAPGQRLEWMGWIDAANGNTKYSQKFQGRVTITGDTSASTAYMELSSLRSEDTAVYYCARDRWMTTRAFDIWGQGTMVTVSS
VL: QPVLTQPPSASGTPGQRVTISCSGSSSNIGSNYVFWYQQLPGMAPKLLISRNNQRPSGVPDRFSGSKSGTSASLAISGPQSEDEADYYCAAWDDSLRGPVFGGGTRVTVL
B6: 1F8 IgG1 (antibody, V domains shown)
VH: B5 VH
VL: B5 VL
B7: 1E9 scFvFc (scFv, V domains shown)
VH: QVQLVQSGGGVVQPGRSLRLSCVASEFTFNTYGMHWVRQAPGKGLEWVAAISYDGTKKFYADSLKGRFTISRDNSKNTLYLQMNSLRSEDTAVYYCARSGDSDAFDIWGQGTMVTVSS
VL: SYELTQPPSVSVSPGQTATITCSGDELGDKFAFWYQQKPGQSPVLVIYQDSKRPSGIPERFSGSNSGNTATLTISGTQALDEADYYCQAWDSNSYVFGTGTKVTVL

Biological target: T1, Spike (S) protein of live MERS-CoV …
Experiment: cell-based or functional assay

| Binder | IC50 (PRNT50, live wt. virus) [µg/mL] |
| --- | --- |
| B1 | 1.25 |
| B2 | 3.5 |
| B3 | 1.46 |
| B4 | 4.5 |
| B5 | 6.27 |
| B6 | 4.05 |
| B7 | 3.21 |
